Measured values published in patent US10654915B2, “Antibodies useful in passive influenza immunization” (priority 2011, dated 2020).
Where “and” joins values, the source holds several entries; their conditions need not be identical. Equal values may be shown once. Read-outs that look alike come from different tables or passages of the source.

What was measured:
H9N2 = format: cell-based, influenza A
H1N1 [1] = tested on: H1N1; design: species or system mice; details: mouse, in vivo
H1N1: A/CA/04/09 = tested on: H1N1: A/CA/04/09; design: species or system mice; details: mouse, in vivo, ip, 10 mg/kg
H1N1 A/CA/07/09 = assay: MDCK monolayer microneutralization assay; format: cell-based, influenza A
[2] = target: HA of clades spanning Group 1; assay: Standard FortéBio assay (FIG. 3A); format: binding, influenza A; details: Group 1, FIG. 3A
H5N1 [3] = format: cell-based, influenza A
H2N2 A/Mallard/MN/2008 = format: cell-based, influenza A
H5N1 A/VN/1204 = format: cell-based, influenza A
[4] = target: H5N1 A/VN/1204 (H5 Vietnam/1203/2004) HA; format: binding, influenza A
H1N1 [5] = format: cell-based, influenza A
[6] = tested on: H1N1 Influenza A/Ca/04/09; assay: Comparison to treatment with Tamiflu in infected mice; format: in vivo
H5 HA = format: binding, influenza A; details: read-out: affinity
H7 HA = format: binding, influenza A; details: read-out: affinity
H9N2 Mallard/MN/98 = format: cell-based, influenza A
H1 HA = format: binding, influenza A; details: read-out: affinity
Philippines 2/82 = tested on: Philippines 2/82; design: species or system mice; details: mouse, in vivo
A/Ca/04/09 (H1N1) = assay: In vivo efficacy, treatment at Day 2; design: species or system mice; details: IP at Day 2, 10 mg/kg (mixture 10 mg/kg each), FIGS. 6A, 6C
[7] = tested on: H5N1: A/Vietnam/1203/04/HPAI; design: species or system mice; details: mouse, in vivo, ip, 10 mg/kg
H7N3 = format: cell-based, influenza A
[8] = tested on: virus 10 times the LD50 delivered intranasally; assay: Prophylaxis in mice, potency (EC50); format: in vivo; details: single intraperitoneal dose at Day -1, virus at Day 0
H9 HA = format: binding, influenza A; details: read-out: affinity
H5N1 [9] = tested on: H5N1; design: species or system mice; details: mouse, in vivo
[10] = target: H1N1 A/CA/07/09 (H1 Calif/07/09) HA; format: binding, influenza A
HA1 = assay: Binding to HA1; design: species or system influenza A

B1: MAB53 (antibody, V domains shown)
VH: QVQLVQSGAEVRKPGSSVKVSCKVSGGIIRKYAINWVRQAPGQGLEWMGGIIAIFNTANYAQKFQGRVTITADESTSTVYMELSSLRSEDTALYYCARGMNYYSDYFDYWGQGSLVTVSP
VL: EIVLTQSPGTLSLSPGERATLSCRASQSVRSNNLAWYQHKPGQAPRLLIFGASSRATGIPDRFSGSGSGTDFTLTISRLEPEDFAVYYCQQYGSSPALTFGGGTKVEIK
modifications: CHAIN (1)...(120) MAB53 heavy chain sequence of variable domain; DOMAIN (31)...(35) CDR1; DOMAIN (50)...(66) CDR2; DOMAIN (99)...(110) CDR3; CHAIN (1)...(109) MAB53 light chain sequence; DOMAIN (24)...(35) CDR1; DOMAIN (51)...(57) CDR2; DOMAIN (90)...(98) CDR3
low doses that neutralized infection (H9N2): 1 to 5 µg/mL
survival (H1N1 [1]): 90% and 50%
therapeutic effectiveness (survival) (H1N1: A/CA/04/09): fully effective
Potency Difference (H1N1 A/CA/07/09; MAB53 vs CR6261 EC50, H1N1 A/CA/07/09): 30x
EC50 (H1N1 A/CA/07/09; in vitro neutralization, H1N1 A/CA/07/09): 0.14 µg/mL
affinity across clades (in words) [2]: sub-nM affinity
low doses that neutralized infection (H5N1 [3]): 1 to 5 µg/mL
EC50 (H2N2 A/Mallard/MN/2008): 1.20 µg/mL
EC50 (H5N1 A/VN/1204): 0.10 µg/mL
Potency Difference (H5N1 A/VN/1204): 40x
Kd ([4]; read-out: Affinity by FortéBio): 0.5 nM
Kd ([4]; read-out: KD): 0.5 nM
low doses that neutralized infection (H1N1 [5]): 1 to 5 µg/mL
survival ([6]; 10 mice per group, treatment from Day +1, to Day 14): eight of the ten mice survived past Day 8 to Day 14
weight relative to original weight (in words) ([6]; by Day 14): the original weight was exceeded
day at which decline in weight was reversed ([6]; treatment from Day +1): 4 days
Kd (H5 HA): 6 nM
Kd (H7 HA): 0.07 nM
EC50 (H9N2 Mallard/MN/98): 0.10 µg/mL
Kd (H1 HA): 0.06 nM
protection / survival (Philippines 2/82): resulted in death after 10 days
protection / survival (A/Ca/04/09 (H1N1)): protective
therapeutic effectiveness (survival) [7]: fully effective
low doses that neutralized infection (H7N3): 1 to 5 µg/mL
EC50 (prophylaxis potency) [8]: 0.4 mg/kg
Kd (H9 HA): 0.03 nM
survival (H5N1 [9]): 80% and 60% and 50%
Kd [10]: 0.1 nM
binding to HA1 (HA1): does not bind HA1
